Reference: patent US20240009318A1 (BLISS BIOPHARMACEUTICAL HANGZHOU, published 2024)
Changes are numbered by the printed parent chain. In names and notes the source's numbering stands.

B1: BB0500-2g1 (antibody, V domains shown)
VH: QVQLQESGPGLVKPSETLSLTCTVSGGSVSSGDYYWTWIRQSPGKGLEWIGHIYYSGNTNYNPSLKSRLTISIDTSKTQFSLKLSSVTAADTAIYYCVRDRVAGAFDIWGQGTMVTVSS
VL: DIQMTQSPSSLSASVGDRVTITCQASQDISNYLNWYQQKPGKAPKLLIYDASNLETGVPSRFSGSGSGTDFTFTISSLQPEDIATYFCQHFDHLPLAFGGGTKVEIKR
notes: The entries already carry the mutation; also called H3T103 single alanine mutant of panitumumab (VH T103A, VL wt)
B2: BB0500-2g (antibody, V domains shown)
VH: B1 VH
VL: B1 VL with Y32A
notes: also called H3T103 / L1Y32 double alanine mutant of panitumumab (VH T103A, VL Y32A)
B3: BB0500-2f1 (antibody, V domains shown)
VH: B1 VH with T59A, A103T
VL: B1 VL
notes: The entries already carry the mutation; also called H2T59 single alanine mutant of panitumumab (VH T59A, VL wt)
B4: BB0500-2f (antibody)
heavy: QVQLQESGPGLVKPSETLSLTCTVSGGSVSSGDYYWTWIRQSPGKGLEWIGHIYYSGNANYNPSLKSRLTISIDTSKTQFSLKLSSVTAADTAIYYCVRDRVTGAFDIWGQGTMVTVSSASTKGPSVFPLAPCSRSTSESTAALGCLVKDYFPEPVTVSWNSGALTSGVHTFPAVLQSSGLYSLSSVVTVPSSNFGTQTYTCNVDHKPSNTKVDKTVEPKSDKCTHTVECPPCPAPPVAGPSVFLFPPKPKDTLMISRTPEVTCVVVDVSHEDPEVQFNWYVDGVEVHNAKTKPREEQFNSTFRVVSVLTVVHQDWLNGKEYKCKVSNKGLPAPIEKTISKTKGQPREPQVYTLPPSREEMTKNQVSLTCLVKGFYPSDISVEWESNGQPENNYKTTPPMLDSDGSFFLYSKLTVDKSRWQQGNVFSCSVMHEALHNHYTQKSLSLSPGK
light: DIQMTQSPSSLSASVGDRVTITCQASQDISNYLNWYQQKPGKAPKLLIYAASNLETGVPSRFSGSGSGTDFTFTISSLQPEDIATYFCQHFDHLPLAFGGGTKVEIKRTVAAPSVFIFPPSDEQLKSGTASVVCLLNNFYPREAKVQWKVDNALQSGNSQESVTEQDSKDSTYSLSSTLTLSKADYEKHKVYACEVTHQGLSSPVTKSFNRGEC
notes: Same variable domains as BB0500-2n; the heavy chain constant part differs; also called H2T59 / L2D50 double alanine mutant of panitumumab (VH T59A, VL D50A)
B5: BB0500-2f2 (antibody, V domains shown)
VH: B1 VH with A103T
VL: B1 VL with D50A
notes: The entries already carry the mutation; also called L2D50 single alanine mutant of panitumumab (VH wt, VL D50A)
B6: BB0500-2n (antibody)
heavy: QVQLQESGPGLVKPSETLSLTCTVSGGSVSSGDYYWTWIRQSPGKGLEWIGHIYYSGNANYNPSLKSRLTISIDTSKTQFSLKLSSVTAADTAIYYCVRDRVTGAFDIWGQGTMVTVSSASTKGPSVFPLAPCSRSTSESTAALGCLVKDYFPEPVTVSWNSGALTSGVHTFPAVLQSSGLYSLSSVVTVPSSNFGTQTYTCNVDHKPSNTKVDKTVEPPKSDCKTHTVECPPCPAPEAAGGPSVFLFPPKPKDTLMISRTPEVTCVVVDVSHEDPEVKFNWYVDGVEVHNAKTKPREEQYNSTYRVVSVLTVLHQDWLNGKEYKCKVSNKALPAPIEKTISKAKGQPREPQVYTLPPSREEMTKNQVSLTCLVKGFYPSDIAVEWESNGQPENNYKTTPPVLDSDGSFFLYSKLTVDKSRWQQGNVFSCSVMHEALHNHYTQKSLSLSPGK
light: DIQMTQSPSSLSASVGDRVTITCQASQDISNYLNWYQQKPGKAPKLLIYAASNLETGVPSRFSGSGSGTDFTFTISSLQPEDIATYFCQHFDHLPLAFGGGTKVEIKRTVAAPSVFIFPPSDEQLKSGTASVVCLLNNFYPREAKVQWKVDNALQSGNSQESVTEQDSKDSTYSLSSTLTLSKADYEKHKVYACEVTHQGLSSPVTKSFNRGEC
notes: Same variable domains as BB0500-2f; the heavy chain constant part differs

Key:
[1] = target: T1, human EGFR protein (human, UniProt P00533 25-645, limits assumed); assay: ELISA
T1 construct: The BLI text says 'human EGFR'; the ELISA text says only 'EGFR'; also called epidermal growth factor receptor; HER1
Description: (§1) Mutant antibody samples or control antibodies diluted in 5-fold serial dilutions starting from 10 μg/mL and 8 dilutions total, were coated onto 96-well plates and the plates were incubated at 4° C. overnight. Using HRP-labeled goat anti-human IgG Fc antibody (Sigma, A0170) in 40000 dilution as a detection agent and TMB for colorimetric reaction, the plates read at 450/650 nm for absorbance on Microplate Reader (Molecular Devices, SpectraMax 190) and data analysis was performed using a dose response curve format four parameters logistic model.

[2] = target: T1, human EGFR protein; assay: BLI (Octet RED96e), antibody captured on anti-human Fc (AHC) biosensors, EGFR in solution
Description: Affinity tests are performed in SD buffer (0.02% Tween-20, 0.1% BSA in PBS buffer, pH 7.4) using anti-human Fc Capture (AHC) biosensors. Antibody sample or buffer are dispensed into 96-well microtiter plates. AHC biosensors (Pall FortéBio) are pre-wet with SD buffer to establish a baseline before protein immobilization. The antibody sample is immobilized onto the biosensors. […] Mutant and control antibodies binding is evaluated at various concentrations of EGFR. Data are generated automatically by the Data Acquisition software, and data analysis is performed using FortéBio Data Analysis software.

[3] = target: T1, human EGFR protein; assay: ELISA of binding to EGFR, 5-fold dilutions from 10 ug/mL, detection with HRP goat anti-human IgG Fc, OD 450/650 nm
Description: as §1

Binder | EC50 fold change against wt control [1] [fold] | Kd [2] [nM] | koff [2] [s⁻¹] | kon [2] [M⁻¹ s⁻¹] | EC50 (read off the curve) [3] [µg/mL]
B1 | ~100 |  |  |  | 
B2 |  | 38.8 | 0.0272 | 701000 | ~0.02
B3 |  | 1.12 | 0.000736 | 655000 | ~0.02
B4 |  |  |  |  | ~0.02
B5 |  | 28.3 | 0.0154 | 543000 | ~0.02
B6 |  | 44.1 | 0.024 | 543000 | 
